What all share (assay): EMSA
What all share (settings): EMSA: 5 mM Tris-HCl pH 7.5, 0.1 mM EDTA, 5 mM MgCl2, 10 mM KCl, 0.2 mM DTT, 30 C, 30 min, native PAGE in 0.5x TBE; MST: 50 mM PBS pH 7.2-7.4, temperature not …

The subject of data set [1] is T1, 6xHis-APR1 F318S F318S (Acinetobacter venetianus RAG-1), ORF:d17a4b85.
T1 sequence: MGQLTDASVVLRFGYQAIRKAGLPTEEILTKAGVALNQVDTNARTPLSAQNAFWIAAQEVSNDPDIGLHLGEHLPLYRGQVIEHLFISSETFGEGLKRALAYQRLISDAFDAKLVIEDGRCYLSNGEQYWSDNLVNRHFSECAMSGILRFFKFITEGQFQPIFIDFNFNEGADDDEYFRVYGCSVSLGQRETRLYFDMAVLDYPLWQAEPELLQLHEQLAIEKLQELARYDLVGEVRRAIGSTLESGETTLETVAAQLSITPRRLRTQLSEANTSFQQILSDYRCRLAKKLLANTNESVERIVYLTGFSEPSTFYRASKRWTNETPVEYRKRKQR

The test system of data set [2] is T2, MBP-APR1 L265S L265S (Acinetobacter venetianus RAG-1), ORF:d17a4b85.
T2 sequence: T1 sequence with L265S, S318F

The subject of data set [3] is T3, 6xHis-APR1 T306L T306L (Acinetobacter venetianus RAG-1), ORF:d17a4b85.
T3 sequence: T1 sequence with T306L, S318F

Data set [4] deals with T4, 6xHis-APR1 V303E V303E (Acinetobacter venetianus RAG-1), ORF:d17a4b85.
T4 sequence: T1 sequence with V303E, S318F

The subject of data set [5] is T5, 6xHis-APR1 F314S F314S (Acinetobacter venetianus RAG-1), ORF:d17a4b85.
T5 sequence: T1 sequence with F314S, S318F

Changes are numbered by the printed parent chain.

Regarding “AGCCTACCTGATGATCAAATTGGAAAGGCGCAAATTATAGTCAATTTATTTGAAATTTACAAGACGCTCTCTTAGCAAAGCTTGTACAGATGAATTGGAAAAAACTGTCAGACAATCCTCATTTTTTTTTAACAAAAGAAGCAGAATAGTGTTGTCAGTTTGGTCAATCAACGTTAATCTAAAATTATTGTTTATTGTCACAATAACGTATCTACAGGGAAGGGCACTGC (double strand) [apR1 promoter]”, the binding entry is listed as “no binding” in data set [1]; “no binding” in data set [2]; “binds” in data set [3]; “no binding” in data set [4]; “no binding” in data set [5].

These data come from paper PMC11784139.
